In paper PMC10157364 (2023):
Numbering of substitutions follows the chain as printed.

T1: human MIF treated with 0.2% Proclin300 (oxMIF surrogate) (human, UniProt P14174 1-115, treated with 0.2% Proclin300 to transform MIF into an oxMIF surrogate)
T1 chain: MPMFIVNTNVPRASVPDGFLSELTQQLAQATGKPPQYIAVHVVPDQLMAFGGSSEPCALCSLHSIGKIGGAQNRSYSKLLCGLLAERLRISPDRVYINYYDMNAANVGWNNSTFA

B1: ON103 (antibody, V domains shown)
VH: EVQLQESGGGLVQPGGSLRLSCAASGFTFSIYSMNWVRQAPGKGLEWVSSIGSSGGTTYYADSVKGRFTISRDNSKNTLYLQMNSLRAEDTAVYYCAGSQYLYGMDVWGQGTTVTVSS
VL: DIQMTQSPSSLSASVGDRVTITCRSSQRILTYLNWYQQKPGKAPKLLIYVGSHSQSGVPSRFRGSGSETDFTLTISGLQSEDSATYYCQQSFFTPLTFGGGTKVEIK
B2: C0008 (antibody, V domains shown)
VH: B1 VH with Q5L, Y101W
VL: B1 VL with L30M, Y49F, G51A, S80P, F93W
B3: ON203 (antibody, V domains shown)
VH: B1 VH
VL: B1 VL with L30M, S80P

Molecular target: T1, human MIF treated with 0.2% Proclin300 …
Assay: ELISA

EC50 [nM] | Binder
0.6 | B1
0.6 | B2
0.7 | B3

Molecular target: mouse MIF treated with 0.2% Proclin300 (oxMIF surrogate) (mouse, UniProt P34884 1-115, treated with 0.2% Proclin300 to transform MIF into an oxMIF surrogate)
Assay: ELISA

EC50 [nM] | Binder
4.6 | B1
3.1 | B2
5.2 | B3

Molecular target: T1, human MIF treated with 0.2% Proclin300 …
Assay: SPR

Kd [nM] | Binder
3.7 | B1
3.5 | B2
6.1 | B3
